Holding throughout (experiment): Kinase Profiling Assay
Common to all, as to type: biochemical
Settings in all cases: 100 μM

For assay [1], the target named is Rsk3 (h) (Homo sapiens, UniProt Q15349). Summed up:
(§1)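 In this 266-kinase specificity panel, every measurement was duplicated. Transfer of labeled phosphate from ATP to a cationic substrate was quantified after the substrate adhered to an anionic filter membrane and was scintillation-counted, then related to a full-activity control.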

The target in assay [2] is TrkA (h) (Homo sapiens, UniProt P04629). Summed up:
as §1

Assay [3] addresses T1, GSK3α (h) (Homo sapiens, UniProt P49840).
T1 construct: purchased Millipore
Summed up:
as §1

Assay [4] deals with T2, Haspin (h) (Homo sapiens, UniProt Q8TF76).
T2 construct: purchased Millipore
T2 sequence (Q8TF76 1-798): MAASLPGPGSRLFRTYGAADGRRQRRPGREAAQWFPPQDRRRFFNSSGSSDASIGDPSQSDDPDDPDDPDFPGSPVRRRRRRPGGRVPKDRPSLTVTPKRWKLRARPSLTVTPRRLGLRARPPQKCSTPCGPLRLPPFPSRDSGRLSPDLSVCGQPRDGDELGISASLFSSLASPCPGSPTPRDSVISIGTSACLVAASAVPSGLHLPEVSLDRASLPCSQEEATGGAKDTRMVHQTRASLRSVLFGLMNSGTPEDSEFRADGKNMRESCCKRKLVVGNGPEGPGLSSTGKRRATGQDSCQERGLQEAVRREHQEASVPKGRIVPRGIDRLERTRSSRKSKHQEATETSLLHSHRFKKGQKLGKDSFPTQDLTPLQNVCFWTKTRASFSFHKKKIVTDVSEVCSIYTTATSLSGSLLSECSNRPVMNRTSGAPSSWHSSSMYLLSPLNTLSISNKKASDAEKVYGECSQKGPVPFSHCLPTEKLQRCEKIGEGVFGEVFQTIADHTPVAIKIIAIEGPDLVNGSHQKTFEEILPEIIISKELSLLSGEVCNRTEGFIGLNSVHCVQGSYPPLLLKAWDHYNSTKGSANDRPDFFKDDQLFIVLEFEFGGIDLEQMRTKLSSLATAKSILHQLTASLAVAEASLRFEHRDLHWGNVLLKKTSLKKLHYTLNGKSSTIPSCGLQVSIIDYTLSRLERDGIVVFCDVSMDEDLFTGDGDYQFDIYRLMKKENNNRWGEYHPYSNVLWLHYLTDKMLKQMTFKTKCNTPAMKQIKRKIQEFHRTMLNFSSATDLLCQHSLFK
The method in brief: as §1

For assay [5], the target named is MARK1 (h) (Homo sapiens, UniProt Q9P0L2). Summed up:
as §1

Assay [6] concerns the target T3, GRK6 (h) (Homo sapiens, UniProt P43250).
T3 construct: purchased Millipore
The method in brief:
as §1

Assay [7] deals with T4, GCK (h) (Homo sapiens, UniProt Q12851).
T4 construct: purchased Millipore
T4 sequence (Q12851 1-820): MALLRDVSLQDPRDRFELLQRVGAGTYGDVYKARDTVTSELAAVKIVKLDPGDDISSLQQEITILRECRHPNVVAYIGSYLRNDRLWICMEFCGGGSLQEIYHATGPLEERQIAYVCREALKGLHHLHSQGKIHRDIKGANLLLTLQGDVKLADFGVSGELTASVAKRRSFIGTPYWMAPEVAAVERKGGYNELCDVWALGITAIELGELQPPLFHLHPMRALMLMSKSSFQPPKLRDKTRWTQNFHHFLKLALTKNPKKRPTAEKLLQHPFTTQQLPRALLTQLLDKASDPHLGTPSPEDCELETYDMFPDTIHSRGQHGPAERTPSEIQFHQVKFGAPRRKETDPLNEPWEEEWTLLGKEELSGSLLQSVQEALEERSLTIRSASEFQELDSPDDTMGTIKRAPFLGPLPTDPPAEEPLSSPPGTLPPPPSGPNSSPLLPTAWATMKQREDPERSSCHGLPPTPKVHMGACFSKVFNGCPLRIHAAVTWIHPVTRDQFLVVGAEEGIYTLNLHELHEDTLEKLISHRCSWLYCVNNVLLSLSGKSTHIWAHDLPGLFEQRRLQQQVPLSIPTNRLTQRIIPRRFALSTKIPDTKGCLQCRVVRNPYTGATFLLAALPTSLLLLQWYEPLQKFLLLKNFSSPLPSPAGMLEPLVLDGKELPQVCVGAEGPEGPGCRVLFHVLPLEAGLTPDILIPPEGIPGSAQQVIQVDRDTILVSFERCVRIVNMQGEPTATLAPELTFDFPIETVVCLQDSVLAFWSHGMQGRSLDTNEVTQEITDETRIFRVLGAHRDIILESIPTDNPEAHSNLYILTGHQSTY
The method in brief:
as §1

Assay [8] concerns the target T5, IKKα (h) (Homo sapiens, UniProt O15111).
T5 construct: purchased Millipore
T5 sequence (O15111 1-745): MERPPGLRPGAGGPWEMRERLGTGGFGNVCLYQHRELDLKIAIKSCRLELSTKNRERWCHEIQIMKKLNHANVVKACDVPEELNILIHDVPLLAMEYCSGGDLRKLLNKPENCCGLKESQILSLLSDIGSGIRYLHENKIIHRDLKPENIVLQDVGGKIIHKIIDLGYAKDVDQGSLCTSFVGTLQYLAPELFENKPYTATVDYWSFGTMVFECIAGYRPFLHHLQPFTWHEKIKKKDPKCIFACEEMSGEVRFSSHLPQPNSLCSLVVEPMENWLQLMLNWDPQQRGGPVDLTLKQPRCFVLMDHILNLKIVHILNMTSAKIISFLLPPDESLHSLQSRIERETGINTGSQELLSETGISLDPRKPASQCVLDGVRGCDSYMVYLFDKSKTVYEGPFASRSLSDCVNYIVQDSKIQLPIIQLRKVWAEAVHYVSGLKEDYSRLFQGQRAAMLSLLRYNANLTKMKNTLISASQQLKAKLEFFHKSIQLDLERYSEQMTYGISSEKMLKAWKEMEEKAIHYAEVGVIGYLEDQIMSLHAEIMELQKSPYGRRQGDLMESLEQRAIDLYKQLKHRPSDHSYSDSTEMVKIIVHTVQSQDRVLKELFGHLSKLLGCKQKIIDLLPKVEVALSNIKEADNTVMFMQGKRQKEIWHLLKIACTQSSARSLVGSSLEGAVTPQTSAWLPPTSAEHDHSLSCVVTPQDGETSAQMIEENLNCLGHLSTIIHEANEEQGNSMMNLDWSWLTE
Summed up:
as §1

For assay [9], the target named is Abl(T315I) (h) (Homo sapiens, UniProt P00519, T315I). The method in brief:
as §1

T3 sequence (P43250 whole entry): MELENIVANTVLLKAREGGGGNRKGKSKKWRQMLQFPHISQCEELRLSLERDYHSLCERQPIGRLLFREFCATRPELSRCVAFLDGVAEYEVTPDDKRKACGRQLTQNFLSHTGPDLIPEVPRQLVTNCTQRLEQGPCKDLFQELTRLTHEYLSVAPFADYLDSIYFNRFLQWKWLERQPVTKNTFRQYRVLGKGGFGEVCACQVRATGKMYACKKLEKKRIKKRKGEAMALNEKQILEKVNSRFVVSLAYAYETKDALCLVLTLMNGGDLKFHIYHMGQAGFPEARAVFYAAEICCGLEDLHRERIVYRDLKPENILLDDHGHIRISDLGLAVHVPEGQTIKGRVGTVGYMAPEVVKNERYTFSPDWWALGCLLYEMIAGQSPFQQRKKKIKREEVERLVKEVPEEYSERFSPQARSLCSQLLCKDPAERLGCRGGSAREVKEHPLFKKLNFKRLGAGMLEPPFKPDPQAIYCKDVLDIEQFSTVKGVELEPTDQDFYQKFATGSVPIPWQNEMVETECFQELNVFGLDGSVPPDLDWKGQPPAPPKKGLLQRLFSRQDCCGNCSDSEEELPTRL
T1 sequence (P49840 whole entry): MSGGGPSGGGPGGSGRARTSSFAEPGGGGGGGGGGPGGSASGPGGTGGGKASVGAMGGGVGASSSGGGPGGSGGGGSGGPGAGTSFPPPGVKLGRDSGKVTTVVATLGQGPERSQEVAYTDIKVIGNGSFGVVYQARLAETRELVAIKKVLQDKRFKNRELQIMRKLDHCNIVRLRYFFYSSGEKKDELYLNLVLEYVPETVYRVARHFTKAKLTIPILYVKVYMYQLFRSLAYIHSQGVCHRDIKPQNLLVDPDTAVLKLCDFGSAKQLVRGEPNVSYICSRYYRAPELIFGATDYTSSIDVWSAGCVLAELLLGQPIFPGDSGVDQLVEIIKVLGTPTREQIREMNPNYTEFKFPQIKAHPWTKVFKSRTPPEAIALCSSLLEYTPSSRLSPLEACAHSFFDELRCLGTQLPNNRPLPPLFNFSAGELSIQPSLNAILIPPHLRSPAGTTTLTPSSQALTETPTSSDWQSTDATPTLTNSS
Sequence of TrkA (h) (P04629 33-796): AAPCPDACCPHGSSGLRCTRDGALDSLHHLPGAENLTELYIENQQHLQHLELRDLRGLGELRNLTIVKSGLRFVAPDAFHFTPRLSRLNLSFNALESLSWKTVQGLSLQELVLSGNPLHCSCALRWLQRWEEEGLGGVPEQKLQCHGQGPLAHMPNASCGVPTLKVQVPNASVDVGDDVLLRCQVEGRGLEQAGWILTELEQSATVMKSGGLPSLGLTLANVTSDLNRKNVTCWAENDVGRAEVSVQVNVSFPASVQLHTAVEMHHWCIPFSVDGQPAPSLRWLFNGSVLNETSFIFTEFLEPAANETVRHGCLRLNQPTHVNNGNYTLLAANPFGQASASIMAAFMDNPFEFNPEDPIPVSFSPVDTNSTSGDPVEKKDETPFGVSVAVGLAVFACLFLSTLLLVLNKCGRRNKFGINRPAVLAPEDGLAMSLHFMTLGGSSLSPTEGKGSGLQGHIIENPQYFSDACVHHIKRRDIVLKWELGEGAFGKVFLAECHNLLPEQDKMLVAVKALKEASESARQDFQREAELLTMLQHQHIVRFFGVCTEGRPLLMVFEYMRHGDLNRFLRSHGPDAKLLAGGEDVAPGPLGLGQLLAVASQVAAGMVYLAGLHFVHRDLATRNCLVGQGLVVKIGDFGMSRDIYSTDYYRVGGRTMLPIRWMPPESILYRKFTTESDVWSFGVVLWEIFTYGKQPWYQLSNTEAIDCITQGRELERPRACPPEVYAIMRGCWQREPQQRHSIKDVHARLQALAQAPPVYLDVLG
Sequence of Rsk3 (h) (Q15349 whole entry): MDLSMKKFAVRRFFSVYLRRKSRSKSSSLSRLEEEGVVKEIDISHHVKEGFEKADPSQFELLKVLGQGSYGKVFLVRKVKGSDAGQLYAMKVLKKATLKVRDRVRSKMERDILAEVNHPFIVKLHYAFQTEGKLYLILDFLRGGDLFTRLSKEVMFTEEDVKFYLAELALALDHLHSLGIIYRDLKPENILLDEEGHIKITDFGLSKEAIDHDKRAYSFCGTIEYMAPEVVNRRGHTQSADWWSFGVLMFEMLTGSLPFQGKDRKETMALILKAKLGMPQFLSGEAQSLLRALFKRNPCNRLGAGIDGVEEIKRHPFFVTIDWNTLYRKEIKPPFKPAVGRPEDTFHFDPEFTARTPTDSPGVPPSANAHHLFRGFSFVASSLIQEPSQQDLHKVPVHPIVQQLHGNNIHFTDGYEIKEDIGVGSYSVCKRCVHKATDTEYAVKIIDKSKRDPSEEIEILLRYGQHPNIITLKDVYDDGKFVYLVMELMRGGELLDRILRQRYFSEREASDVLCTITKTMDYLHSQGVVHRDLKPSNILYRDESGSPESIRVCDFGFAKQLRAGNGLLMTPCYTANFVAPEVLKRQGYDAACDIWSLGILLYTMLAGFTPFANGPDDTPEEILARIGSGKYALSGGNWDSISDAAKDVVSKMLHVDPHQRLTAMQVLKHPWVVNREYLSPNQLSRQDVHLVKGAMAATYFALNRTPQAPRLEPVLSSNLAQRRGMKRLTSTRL
Sequence of MARK1 (h) (Q9P0L2 whole entry): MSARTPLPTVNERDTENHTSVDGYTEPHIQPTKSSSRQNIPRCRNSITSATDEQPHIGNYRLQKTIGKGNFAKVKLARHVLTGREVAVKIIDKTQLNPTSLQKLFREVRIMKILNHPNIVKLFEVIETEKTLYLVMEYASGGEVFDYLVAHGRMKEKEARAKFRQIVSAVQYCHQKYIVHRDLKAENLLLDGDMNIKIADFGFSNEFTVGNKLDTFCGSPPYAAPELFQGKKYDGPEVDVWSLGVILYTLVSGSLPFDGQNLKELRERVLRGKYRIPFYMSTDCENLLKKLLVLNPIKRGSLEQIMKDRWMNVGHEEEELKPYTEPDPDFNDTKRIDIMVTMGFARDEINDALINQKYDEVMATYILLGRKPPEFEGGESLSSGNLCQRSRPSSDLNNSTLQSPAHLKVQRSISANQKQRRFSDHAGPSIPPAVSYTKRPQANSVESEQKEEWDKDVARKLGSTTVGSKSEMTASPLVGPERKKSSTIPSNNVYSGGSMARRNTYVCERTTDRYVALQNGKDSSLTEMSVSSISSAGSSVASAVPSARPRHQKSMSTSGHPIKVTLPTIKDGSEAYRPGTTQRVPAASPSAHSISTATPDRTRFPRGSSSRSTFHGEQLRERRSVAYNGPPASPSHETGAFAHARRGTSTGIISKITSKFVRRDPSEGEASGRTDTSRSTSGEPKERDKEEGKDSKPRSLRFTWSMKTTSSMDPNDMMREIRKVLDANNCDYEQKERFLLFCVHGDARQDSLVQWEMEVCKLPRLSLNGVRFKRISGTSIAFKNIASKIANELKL

In the case of KAFAKLAARLYRKALARQLGVAA [MMI-0400], the “% activity” value came to 71% in assay [1]; 17% in assay [2]; 164% in [3]; 36% in [4]; 120% in [5]; 141% in [6]. The “% activity” value in assay [7] came to 66%; in assay [8], 87%.

Take “YARAAARQARAKALNRQLGVA (Mammalian) [MMI-0200]”: the “% activity” value in assay [9] came out at 108%; in assay [4], 71%; in assay [6] it was 132%; in assay [7], 99%.

As for “HRRIKAWLKKIKALARQLGVAA (Mammalian) [MMI-0500]”, the “% activity” value in assay [1] stood at 23%; in [9] it was 16%; in assay [2], 24%; in [3], 175%; in assay [4], 25%; in assay [5], 110%. For the same sequence, the “% activity” value in assay [6] was determined as 174%; in assay [7] it was 30%; in assay [8], 50%.

In the case of FAKLAARLYRKALARQLGVAA [MMI-0300], the “% activity” value worked out at 76% in assay [1]; 97% in [9]; 25% in assay [2]; 157% in [3]; 48% in [4]; 132% in [5]. Moreover, the “% activity” value came out at 147% in [6], 70% in [7] and 93% in assay [8].

(Values after patent US10500249B2, “Compositions and methods for preventing or treating diseases, conditions, or processes characterized by aberrant fibroblast proliferation and extracellular matrix deposition” (MOERAE MATRIX, INC., priority 2014, dated 2019).)
